Reference: patent publication US20230357420A1 (VILLARIS THERAPEUTICS, published 2023)
Read-outs that look alike come from different tables or passages of the source.

Legend:
Neudesin = target: T1, Neudesin (human, UniProt Q9UMX5 32-172); assay: Retrogenix cell microarray
T1 construct: whole, on cells; Secreted protein; the tether is not described; also called NENF; neudesin neurotrophic factor (on transfected cells)

CILP2 = target: T2, CILP2 (human, UniProt Q8IUL8 21-1156); assay: Retrogenix cell microarray
T2 construct: whole, on cells; Secreted protein; tether not described; also called cartilage intermediate layer protein 2 (on transfected cells)
T2 sequence (looked up): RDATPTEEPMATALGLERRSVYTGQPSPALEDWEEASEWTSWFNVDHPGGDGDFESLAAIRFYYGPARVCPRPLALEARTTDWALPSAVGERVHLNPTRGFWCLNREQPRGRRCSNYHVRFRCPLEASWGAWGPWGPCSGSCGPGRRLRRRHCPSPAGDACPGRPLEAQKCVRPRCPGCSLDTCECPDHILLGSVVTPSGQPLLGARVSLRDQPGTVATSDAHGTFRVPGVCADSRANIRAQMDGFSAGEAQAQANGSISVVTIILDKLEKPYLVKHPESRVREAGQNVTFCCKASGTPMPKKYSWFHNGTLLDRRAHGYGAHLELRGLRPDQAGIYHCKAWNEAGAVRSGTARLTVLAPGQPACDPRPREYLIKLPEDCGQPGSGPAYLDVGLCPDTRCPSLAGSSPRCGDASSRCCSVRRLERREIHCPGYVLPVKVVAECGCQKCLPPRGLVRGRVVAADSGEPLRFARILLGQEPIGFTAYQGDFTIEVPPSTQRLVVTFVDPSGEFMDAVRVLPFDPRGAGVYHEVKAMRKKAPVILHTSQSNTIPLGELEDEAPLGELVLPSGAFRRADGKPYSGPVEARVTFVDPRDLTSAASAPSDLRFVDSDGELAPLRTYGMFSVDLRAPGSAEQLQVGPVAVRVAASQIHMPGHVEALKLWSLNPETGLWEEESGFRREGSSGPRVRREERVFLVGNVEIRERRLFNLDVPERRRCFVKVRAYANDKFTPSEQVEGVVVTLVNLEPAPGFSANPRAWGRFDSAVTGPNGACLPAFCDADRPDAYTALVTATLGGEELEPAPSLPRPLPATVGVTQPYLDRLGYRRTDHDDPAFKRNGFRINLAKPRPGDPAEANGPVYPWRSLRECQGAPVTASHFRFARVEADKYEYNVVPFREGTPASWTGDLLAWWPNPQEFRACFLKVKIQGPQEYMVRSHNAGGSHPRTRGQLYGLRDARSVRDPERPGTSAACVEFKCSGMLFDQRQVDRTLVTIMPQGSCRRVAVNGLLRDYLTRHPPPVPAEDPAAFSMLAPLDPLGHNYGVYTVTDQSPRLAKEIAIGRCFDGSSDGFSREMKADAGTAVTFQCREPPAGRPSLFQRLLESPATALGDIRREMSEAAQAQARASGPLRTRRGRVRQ

Human CD122 [1] = target: T3, Human CD122 (human, UniProt P14784 27-551); assay: flow cytometry (FACS) on huIL15Rβ-transfected CHO-K1 cells, anti-human IgG-FITC, GeoMFI
T3 construct: also called hCD122; IL2RB
T3 sequence: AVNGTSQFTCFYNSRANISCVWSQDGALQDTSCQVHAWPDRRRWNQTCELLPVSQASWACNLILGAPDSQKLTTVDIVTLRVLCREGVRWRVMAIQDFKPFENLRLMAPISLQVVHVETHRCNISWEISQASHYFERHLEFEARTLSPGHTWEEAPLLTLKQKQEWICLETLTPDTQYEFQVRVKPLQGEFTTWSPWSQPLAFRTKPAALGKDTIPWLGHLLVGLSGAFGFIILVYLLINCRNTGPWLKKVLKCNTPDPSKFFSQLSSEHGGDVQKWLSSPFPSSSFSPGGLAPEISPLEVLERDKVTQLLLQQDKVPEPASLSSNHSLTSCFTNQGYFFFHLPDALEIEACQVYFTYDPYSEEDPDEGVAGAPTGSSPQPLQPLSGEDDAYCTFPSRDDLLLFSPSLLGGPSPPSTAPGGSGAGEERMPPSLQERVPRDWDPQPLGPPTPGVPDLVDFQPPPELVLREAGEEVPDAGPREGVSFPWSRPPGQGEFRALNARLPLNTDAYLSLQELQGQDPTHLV
Experimental: (§1) Purified IgGs were tested in FACs for binding to human and rhesus CD122 expressed on CHO-K1 stable cell lines and CHO-K1 wild-type cells. The IgG samples were titrated in three-fold serial dilutions starting at 500 nM to […]. Binding of IgGs was detected with a mouse anti-human IgG conjugated to FITC. Results were analyzed by examining the Mean Fluorescence Intensity (MFI) of 10000 cells per sample in the BL-1 channel detector of a flow cytometer (AttuneTM NxT Acoustic Focusing Cytometer, Invitrogen/ ThermoFisher Scientific).

Rhesus CD122 [2] = target: T4, Rhesus CD122 (rhesus monkey, UniProt Q38J85 27-551 (cynomolgus entry)); assay: flow cytometry (FACS) on rhIL15Rβ-transfected CHO-K1 cells, anti-human IgG-FITC, GeoMFI
T4 construct: also called rhCD122 on cells
T4 sequence: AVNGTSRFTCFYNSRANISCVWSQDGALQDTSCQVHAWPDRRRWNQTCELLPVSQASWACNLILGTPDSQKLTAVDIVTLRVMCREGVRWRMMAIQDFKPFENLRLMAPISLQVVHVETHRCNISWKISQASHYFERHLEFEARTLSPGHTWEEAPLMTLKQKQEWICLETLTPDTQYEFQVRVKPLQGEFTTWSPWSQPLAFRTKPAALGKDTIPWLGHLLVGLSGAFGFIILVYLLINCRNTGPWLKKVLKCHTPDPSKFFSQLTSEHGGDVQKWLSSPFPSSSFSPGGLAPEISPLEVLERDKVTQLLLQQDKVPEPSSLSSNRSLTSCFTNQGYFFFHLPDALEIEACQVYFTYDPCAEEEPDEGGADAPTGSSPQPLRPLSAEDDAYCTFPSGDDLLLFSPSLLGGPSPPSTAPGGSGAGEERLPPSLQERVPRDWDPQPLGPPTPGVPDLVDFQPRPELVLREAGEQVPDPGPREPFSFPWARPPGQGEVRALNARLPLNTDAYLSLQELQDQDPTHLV
Experimental: as §1

Human CD122 [3] = target: T3, Human CD122; assay: flow cytometry (FACS) on huIL15Rβ-transfected CHO-K1 cells, anti-human IgG-FITC, GeoMFI; remark: listed apart in the source
Experimental: as §1

Human CD122 [4] = target: T3, Human CD122; assay: as above; remark: listed apart in the source
Experimental: as §1

Rhesus CD122 [5] = target: T4, Rhesus CD122; assay: flow cytometry (FACS) on rhIL15Rβ-transfected CHO-K1 cells, anti-human IgG-FITC, GeoMFI; remark: listed apart in the source
Experimental: as §1

T1 sequence (Q9UMX5 32-172): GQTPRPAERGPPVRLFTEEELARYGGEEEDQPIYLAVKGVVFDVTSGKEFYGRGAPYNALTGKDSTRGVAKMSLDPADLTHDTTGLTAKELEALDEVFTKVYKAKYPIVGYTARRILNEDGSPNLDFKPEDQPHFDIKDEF

B1: IgG1-MIKβ1 (humanized) (antibody, V domains shown)
VH: EVQLLESGGGLVQPGGSLRLSCAASGFSVTSYGVHWIRQAPGKGLEWLGVIWSGGSTDYNAAFISRLTISKDNSKNTVYFQMNSLQAEDTAIYYCARAGDYNYDGFAYWGQGTLVTVSS
VL: DIVLTQSPSSLSASVGDRVTITCSGSSSVSFMYWYQQRPGKAPRLLIYDTSNLASGVPSRFSGSGSGTSYTFTISSLQPEDIATYYCQQWSTYPLTFGQGTKVEVK
notes: also called VillMab-1; VillMAB-1
With B1 the binding result (Neudesin) was “no binding”, the binding result (CILP2) was “no binding” and the “EC50 (read off the curve)” value (Human CD122 [1]) was about 0.9 nM. The “EC50 (read off the curve)” value (Rhesus CD122 [2]) was about 0.6 nM, the “EC50 (read off the curve)” value (Human CD122 [3]) was about 0.9 nM and the “EC50 (read off the curve)” value (Human CD122 [4]) was about 0.9 nM. The “EC50 (read off the curve)” value (Rhesus CD122 [5]) was about 0.6 nM.
